Results: US20220017623A1, “TREATMENT OF CANCER USING A CEA CD3 BISPECIFIC ANTIBODY AND A WNT SIGNALING INHIBITOR” (Hoffmann-La Roche Inc., priority 2019, published 2022)
Like-named read-outs stand apart in the source and are kept apart here.

Legend:
[1] = tested on: CEA expressing metastatic CRCs; settings: cited from earlier work
[2] = tested on: patient derived colorectal cancer organoids (PDOs); assay: allogeneic CD8 T cell co-culture assay with patient derived colorectal cancer organoids, GFP confluence growth assessment; assay type: cell-based, human; settings: 20 nM
Protocol: In order to assess the sensitivity of patient-derived colorectal cancer organoids (PDOs) to cibisatamab immunotherapy, eight patient derived colorectal cancer organoid lines with various cell surface CEA expression levels were generated and treated with cibisatamab (20 nM) or an untargeted control antibody (20 nM) during 10 days of co-culture with allogeneic CD8 T cells. CD8 T cells were isolated from allogeneic healthy donor peripheral blood mononuclear cells (PBMCs) by magnetic bead sorting and expanded in vitro with IL2 and CD3/CD28 beads for 7-14 days. GFP-tagged CRC PDO cells were then seeded in 96 well plates, T cells were added the following day and the co-cultures were imaged every 2-3 days on an automated 96 well plate fluorescence microscope. […] Co-culture with CD8 T cells without any antibody was included as a further control to enable the identification of alloreactive donor T cells.
Eight PDO lines were tested: three CEAhi PDOs (i.e. containing predominantly CEAhi cells; CRC-01, CRC-05, CRC-07), four PDOs with mixed CEA expression (i.e. containing large subpopulations of both CEAhi and CEAlo cells; CRC-02, CRC-03, CRC-04, CRC-08), and one CEAlo PDO (i.e. containing predominantly CEAlo cells; CRC-06).
PDOs were harvested with TrypLE Express and neutralised with DMEM/F12 Ham medium (Sigma Aldrich) with 10% FBS. Cells were filtered through a 70 μm filter, counted and resuspended in phenol-red free RPMI medium (Thermo Fisher) supplemented with 10% FBS (Biosera), 1× Glutamax and 100 units penicillin-streptomycin. On day 0, 5000 tumor cells per well of a 96 well-plate (Corning Special Optics Microplate) were plated. CD8 T cells were added on day 1 at the indicated effector to target (E:T) ratios with 20 nM of cibisatamab or 20 nM of the untargeted negative control antibody DP47-TCB (both provided by Roche). Tumor cells without CD8 T cells and without antibody were also included as controls. All conditions were plated in triplicates and at least 3 different healthy donors were tested on each of the 8 PDOs.
The GFP confluence was quantified every 48h-72h over a 10-day period using the GFP confluence application on the Celigo Imaging Cytometer (Nexcelom Bioscience). GFP confluence analysis was able to track the growth of GFP positive PDO cells over multiple timepoints without erroneously counting the T cells in the co-culture. […] The main advantage of confluence analysis over measuring spheroid diameters is the ability to track even the growth of PDOs showing highly variable shapes. Growth curves were generated with CD8 T cells from three different healthy blood donors. […]

B1: cibisatamab (antibody, chains of the INN, looked up, V domains shown)
VH: QVQLVQSGAEVKKPGASVKVSCKASGYTFTEFGMNWVRQAPGQGLEWMGWINTKTGEATYVEEFKGRVTFTTDTSTSTAYMELRSLRSDDTAVYYCARWDFAYYVEAMDYWGQGTTVTVSS
VL: DIQMTQSPSSLSASVGDRVTITCKASAAVGTYVAWYQQKPGKAPKLLIYSASYRKRGVPSRFSGSGSGTDFTLTISSLQPEDFATYYCHQYYTYPLFTFGQGTKLEIK
VH2: QVQLVQSGAEVKKPGASVKVSCKASGYTFTEFGMNWVRQAPGQGLEWMGWINTKTGEATYVEEFKGRVTFTTDTSTSTAYMELRSLRSDDTAVYYCARWDFAYYVEAMDYWGQGTTVTVSS
VL2: QAVVTQEPSLTVSPGGTVTLTCGSSTGAVTTSNYANWVQEKPGQAFRGLIGGTNKRAPGTPARFSGSLLGGKAALTLSGAQPEDEAEYYCALWYSNLWVFGGGTKLTVL
- patients with radiological shrinkage (antitumor activity) ([1]; in combination with PD-L1-inhibiting antibodies, 5/10 patients): 50%
- patients with radiological shrinkage (antitumor activity) ([1]; monotherapy, metastatic CRC after at least two prior chemotherapy regimens, 4/36 patients): 11%
- growth inhibition ([2]; CEAhi PDOs (CRC-01, CRC-05, CRC-07), CD8 T cells E:T 2:1, 7-10 days, versus DP47-TCB control): 89-100%
- reduction of the cancer cell growth rate compared to controls ([2]; four PDOs with mixed CEA expression (CRC-02, CRC-03, CRC-04, CRC-08), E:T 2:1): only a moderate reduction of the cancer cell growth rate
- sensitivity to treatment with CD8 T cells and antibody ([2]; predominantly CEAlo PDO CRC-06, E:T 2:1): showed resistance
- sensitivity to treatment with CD8 T cells and antibody ([2]; three CEAhi PDOs, E:T 2:1): highly sensitive
